Experiment [1] has as its target SARS-CoV-2 Spike glycoprotein (WH-1), trimeric, HEK293-produced (S1+S2) (SARS-CoV-2) (UniProt P0DTC2). The experiment can be described thus: ELISA. (In general: ELISA stands for enzyme-linked immunosorbent assay.)
The target is the same in experiment [2]. The experiment can be described thus: ITC.
Experiment [3] deals with baculovirus-produced trimeric Spike (SARS-CoV-2) (UniProt P0DTC2). The experiment can be described thus: ITC.
The target in experiment [4] is SARS-CoV-2 Spike glycoprotein (Omicron), trimeric, HEK293-produced (SARS-CoV-2) (UniProt P0DTC2). The experiment is described as follows: ITC.

This is an account of results in PMC10013841.

Chain of cyanovirin-N (P81180 whole entry): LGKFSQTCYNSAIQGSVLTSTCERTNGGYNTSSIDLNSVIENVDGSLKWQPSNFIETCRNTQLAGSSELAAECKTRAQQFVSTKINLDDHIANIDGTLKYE

The EC50 is the concentration giving half of the maximal effect. Low readings indicate a more potent agent, high ones a less potent agent. For orientation: Kd means a measure of binding affinity in units of concentration. A lower Kd goes with tighter binding. For “cyanovirin-N (from UniProt P81180 1-101) (natural protein)”, in experiment [1], the EC50 came out at 2.9 nM. Moreover, the Kd came to 28.1 nM in experiment [2], 13.4 nM in experiment [3] and 15.4 nM in experiment [4]. The stoichiometry N (CV-N per Spike monomer) in experiment [2] was found to be 2; in experiment [3] it was 2.4; in experiment [4] it was 2.
